Values after ≈ are worked out from the molar mass of the structure shown.
Assays:
[1] = system: T1, C. indologenes #3362; experiment: microbe, parasite or virus in culture; parameters: species or system C. indologenes 3362; E. coli C41(DE3); Broth microdilution MIC, ISO 20776-1/EUCAST, cation-adjusted Mueller Hinton broth, after IPTG induction; conditions: Chryseobacterium indologenes; native isolate carrying IND-2 and CIM-1
T1 construct: 3362
Experimental: (§1) The in vitro minimum inhibitory concentration (MIC) of β-lactams including penicillins, cephalosporins, and carbapenems in C. indologenes 3362 and E. coli C41(DE3) carrying different constructs were determined using the broth microdilution assay according to the International Standard ISO 20776-1 as recommended by EUCAST (the European Committee on Antimicrobial Susceptibility Testing). Briefly, bacterial cultures were grown aerobically at 37 °C to an OD600 0.4–0.6 in the presence of 25 μg/mL kanamycin, when necessary, before 1 mM IPTG (isopropyl-β-d-thiogalactopyranoside) was added. The induction was allowed for 2 h at 37 °C before the bacterial culture was diluted to 4 × 10^6 CFU/mL, and the microbroth dilution assays were performed. Cation-adjusted Mueller Hinton (CAMH) broth was used. All assays were repeated at least four times on four different days with different batches of cells.

[2] = system: T2, E. coli C41(DE3) with pET41a(+); experiment: microbe, parasite or virus in culture; parameters: species or system C. indologenes 3362; E. coli C41(DE3); Broth microdilution MIC, ISO 20776-1/EUCAST, cation-adjusted Mueller Hinton broth, after IPTG induction; conditions: Escherichia coli; empty vector pET41a(+), IPTG induced
T2 construct: C41(DE3) empty vector pET41a(+), control
Experimental: as §1

[3] = system: CC(C)(O/N=C(\C(=O)N[C@@H]1C(=O)N2C(C(=O)[O-])=C(C[n+]3ccccc3)CS[C@H]12)c1csc(N)n1)C(=O)O; experiment: purified protein; conditions: 50 mM HEPES pH 7.0, 10 μM ZnSO4, 25 ± 2 °C, 100 nM enzyme, 25.0 °C
[4] = system: CO/N=C(\C(=O)N[C@@H]1C(=O)N2C(C(=O)[O-])=C(C[N+]3(C)CCCC3)CS[C@H]12)c1csc(N)n1; experiment: purified protein; conditions: 50 mM HEPES pH 7.0, 10 μM ZnSO4, 25 ± 2 °C, 100 nM enzyme, 25.0 °C
[5] = system: C[C@@H](O)[C@H]1C(=O)N2C(C(=O)O)=C(SCCN=CN)C[C@H]12; experiment: purified protein; conditions: 50 mM HEPES pH 7.0, 10 μM ZnSO4, 25 ± 2 °C, 100 nM enzyme, 25.0 °C
[6] = system: C[C@@H](O)[C@H]1C(=O)N2C(C(=O)O)=C(S[C@@H]3CN[C@H](C(=O)N(C)C)C3)[C@H](C)[C@H]12; experiment: purified protein; conditions: 50 mM HEPES pH 7.0, 10 μM ZnSO4, 25 ± 2 °C, 100 nM enzyme, 25.0 °C
[7] = system: C[C@@H](O)[C@H]1C(=O)N2C(C(=O)O)=C(S[C@@H]3CN[C@H](C(=O)Nc4cccc(C(=O)O)c4)C3)[C@H](C)[C@H]12; experiment: purified protein; conditions: 50 mM HEPES pH 7.0, 10 μM ZnSO4, 25 ± 2 °C, 100 nM enzyme, 25.0 °C
[8] = system: C[C@@H](O)[C@H]1C(=O)N2C(C(=O)O)=C(S[C@@H]3CN[C@H](CNS(N)(=O)=O)C3)[C@H](C)[C@H]12; experiment: purified protein; conditions: 50 mM HEPES pH 7.0, 10 μM ZnSO4, 25 ± 2 °C, 100 nM enzyme, 25.0 °C
Text: steady-state hydrolysis, UV absorbance, plate reader on CIM-1ΔSig

[9] = system: O=C(Cc1cccs1)N[C@@H]1C(=O)N2C(C(=O)O)=C(/C=C/c3ccc([N+](=O)[O-])cc3[N+](=O)[O-])CS[C@H]12; experiment: purified protein; conditions: 50 mM HEPES pH 7.0, 10 μM ZnSO4, 25 ± 2 °C, 100 nM enzyme, 25.0 °C
[10] = biological target: T3, IND-2ΔSig (Chryseobacterium indologenes, UniProt Q9ETN2); experiment: steady-state hydrolysis, UV absorbance, plate reader; conditions: read-out: Km (μM) / IND-2ΔSig; 50 mM HEPES pH 7.0, 10 μM ZnSO4, 25 ± 2 °C, 100 nM enzyme
T3 construct: gene blaIND-2b

[11] = biological target: T3, IND-2ΔSig; experiment: steady-state hydrolysis, UV absorbance […] nm, plate reader; assay type: biochemical; conditions: read-out: Km (μM) / IND-2ΔSig; 50 mM HEPES pH 7.0, 10 μM ZnSO4, 25 ± 2 °C, 100 nM enzyme
[12] = system: C[C@@H](O)[C@H]1C(=O)N2C(C(=O)O)=C(S[C@@H]3CN[C@H](C(=O)Nc4cccc(C(=O)O)c4)C3)[C@H](C)[C@H]12; experiment: steady-state hydrolysis, UV absorbance, plate reader; assay type: biochemical, Klebsiella pneumoniae; conditions: 50 mM HEPES pH 7.0, 10 μM ZnSO4, 25 ± 2 °C, 100 nM enzyme, 25.0 °C
Text: (§2) steady-state hydrolysis, UV absorbance, plate reader on NDM-4ΔSig

[13] = system: C[C@@H](O)[C@H]1C(=O)N2C(C(=O)O)=C(S[C@@H]3CN[C@H](CNS(N)(=O)=O)C3)[C@H](C)[C@H]12; experiment: as above; assay type: biochemical, Klebsiella pneumoniae; conditions: 50 mM HEPES pH 7.0, 10 μM ZnSO4, 25 ± 2 °C, 100 nM enzyme, 25.0 °C
Text: as §2

[14] = system: CC(C)(O/N=C(\C(=O)N[C@@H]1C(=O)N2C(C(=O)[O-])=C(C[n+]3ccccc3)CS[C@H]12)c1csc(N)n1)C(=O)O; experiment: purified protein; assay type: biochemical, Klebsiella pneumoniae; conditions: 50 mM HEPES pH 7.0, 10 μM ZnSO4, 25 ± 2 °C, 100 nM enzyme, 25.0 °C
[15] = system: CO/N=C(\C(=O)N[C@@H]1C(=O)N2C(C(=O)[O-])=C(C[N+]3(C)CCCC3)CS[C@H]12)c1csc(N)n1; experiment: purified protein; assay type: biochemical, Klebsiella pneumoniae; conditions: 50 mM HEPES pH 7.0, 10 μM ZnSO4, 25 ± 2 °C, 100 nM enzyme, 25.0 °C
[16] = system: C[C@@H](O)[C@H]1C(=O)N2C(C(=O)O)=C(SCCN=CN)C[C@H]12; experiment: purified protein; assay type: biochemical, Klebsiella pneumoniae; conditions: 50 mM HEPES pH 7.0, 10 μM ZnSO4, 25 ± 2 °C, 100 nM enzyme, 25.0 °C
[17] = system: C[C@@H](O)[C@H]1C(=O)N2C(C(=O)O)=C(S[C@@H]3CN[C@H](C(=O)N(C)C)C3)[C@H](C)[C@H]12; experiment: purified protein; assay type: biochemical, Klebsiella pneumoniae; conditions: 50 mM HEPES pH 7.0, 10 μM ZnSO4, 25 ± 2 °C, 100 nM enzyme, 25.0 °C
[18] = biological target: T3, IND-2ΔSig; experiment: steady-state hydrolysis, UV absorbance […] or […] nm, plate reader; conditions: read-out: Km (μM) / IND-2ΔSig; 50 mM HEPES pH 7.0, 10 μM ZnSO4, 25 ± 2 °C, 100 nM enzyme
[19] = biological target: T4, NDM-4ΔSig (Klebsiella pneumoniae, UniProt C7C422, M154L); experiment: steady-state hydrolysis, absorbance […] nm, plate reader; assay type: biochemical; conditions: read-out: Km (μM) / NDM-4ΔSig; 50 mM HEPES pH 7.0, 10 μM ZnSO4, 25 ± 2 °C, 100 nM enzyme
T4 construct: gene blaNDM-1
T4 sequence (C7C422 26-270 M154L): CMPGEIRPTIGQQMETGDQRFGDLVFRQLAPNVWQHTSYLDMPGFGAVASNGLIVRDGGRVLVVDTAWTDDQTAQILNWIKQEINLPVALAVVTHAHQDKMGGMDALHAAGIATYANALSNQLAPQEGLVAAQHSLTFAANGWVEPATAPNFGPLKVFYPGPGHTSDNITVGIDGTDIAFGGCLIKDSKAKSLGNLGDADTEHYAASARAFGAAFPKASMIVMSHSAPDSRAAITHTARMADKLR

T3 sequence (Q9ETN2 entry or part of it, stated change not applied): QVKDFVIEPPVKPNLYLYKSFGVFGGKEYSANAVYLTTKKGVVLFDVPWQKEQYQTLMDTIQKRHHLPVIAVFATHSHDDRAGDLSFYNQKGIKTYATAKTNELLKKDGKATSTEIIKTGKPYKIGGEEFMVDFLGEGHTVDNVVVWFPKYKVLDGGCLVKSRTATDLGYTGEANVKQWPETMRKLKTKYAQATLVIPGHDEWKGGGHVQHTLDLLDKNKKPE

## C[C@@H](O)[C@H]1C(=O)N2C(C(=O)O)=C(SCCN=CN)C[C@H]12 [Imipenem]
[1]
  MIC: 128 µg/mL (≈ 428 µM)
[2]
  MIC: 0.5 µg/mL (≈ 1.67 µM)

## CC1(C)S[C@@H]2[C@H](NC(=O)[C@H](N)c3ccccc3)C(=O)N2[C@H]1C(=O)O [Ampicillin]
[1]
  MIC: 512 µg/mL (≈ 1470 µM)
[2]
  MIC: 4 µg/mL (≈ 11.4 µM)

## CIM-1ΔSig (Chryseobacterium indologenes)
[3]
  Km: 324 ± 42 µM
  kcat: 30 s⁻¹
  kcat/Km: 93000 M⁻¹ s⁻¹
[4]
  Km: 538 ± 56 µM
  kcat: 15.3 s⁻¹
  kcat/Km: 28000 M⁻¹ s⁻¹
[5]
  Km: 94 ± 7 µM
  kcat: 8.5 s⁻¹
  kcat/Km: 90000 M⁻¹ s⁻¹
[6]
  Km: 143 ± 19 µM
  kcat: 15 s⁻¹
  kcat/Km: 100000 M⁻¹ s⁻¹
[7]
  Km: 91 ± 11 µM
  kcat: 9.2 s⁻¹
  kcat/Km: 100000 M⁻¹ s⁻¹
[8]
  Km: 175 ± 24 µM
  kcat: 21 s⁻¹
  kcat/Km: 120000 M⁻¹ s⁻¹
[9]
  Km: 33 ± 6 µM
  kcat: 2.8 s⁻¹
  kcat/Km: 85000 M⁻¹ s⁻¹

## C[C@@H](O)[C@H]1C(=O)N2C(C(=O)O)=C(S[C@@H]3CN[C@H](C(=O)Nc4cccc(C(=O)O)c4)C3)[C@H](C)[C@H]12 [Ertapenem]
[1]
  MIC: 64 µg/mL (≈ 135 µM)
[2]
  MIC: 0.016 µg/mL (≈ 0.0336 µM)

## C[C@@H](O)[C@H]1C(=O)N2C(C(=O)O)=C(S[C@@H]3CN[C@H](CNS(N)(=O)=O)C3)[C@H](C)[C@H]12 [Doripenem]
[1]
  MIC: 128 µg/mL (≈ 304 µM)
[2]
  MIC: 0.063 µg/mL (≈ 0.15 µM)
[10]
  Km: > 1000 µM

## CO/N=C(\C(=O)N[C@@H]1C(=O)N2C(C(=O)[O-])=C(C[N+]3(C)CCCC3)CS[C@H]12)c1csc(N)n1 [Cefepime]
[1]
  MIC: 2 µg/mL (≈ 4.16 µM)
[2]
  MIC: 0.031 µg/mL (≈ 0.0645 µM)

## CC(C)(O/N=C(\C(=O)N[C@@H]1C(=O)N2C(C(=O)[O-])=C(C[n+]3ccccc3)CS[C@H]12)c1csc(N)n1)C(=O)O [Ceftazidime]
[11]
  Km: > 1000 µM
[1]
  MIC: 16 µg/mL (≈ 29.3 µM)
[2]
  MIC: 0.125 µg/mL (≈ 0.229 µM)

## CO[C@@]1(NC(=O)Cc2cccs2)C(=O)N2C(C(=O)O)=C(COC(N)=O)CS[C@@H]21 [*Cefoxitin (2nd)]
[1]
  MIC: 32 µg/mL (≈ 74.9 µM)
[2]
  MIC: 0.5 µg/mL (≈ 1.17 µM)

## NDM-4ΔSig (Klebsiella pneumoniae; M154L)
[12]
  Km: 159 ± 22 µM
  kcat: 17 s⁻¹
  kcat/Km: 110000 M⁻¹ s⁻¹
[13]
  Km: 253 ± 19 µM
  kcat: 51 s⁻¹
  kcat/Km: 200000 M⁻¹ s⁻¹
[14]
  Km: 93 ± 14 µM
  kcat: 6.3 s⁻¹
  kcat/Km: 68000 M⁻¹ s⁻¹
[15]
  Km: 136 ± 16 µM
  kcat: 5.4 s⁻¹
  kcat/Km: 40000 M⁻¹ s⁻¹
[16]
  Km: 151 ± 22 µM
  kcat: 31 s⁻¹
  kcat/Km: 210000 M⁻¹ s⁻¹
[17]
  Km: 163 ± 22 µM
  kcat: 25 s⁻¹
  kcat/Km: 150000 M⁻¹ s⁻¹

## C[C@H]1[C@H](NC(=O)/C(=N\OC(C)(C)C(=O)O)c2csc(N)n2)C(=O)N1S(=O)(=O)O [Aztreonam]
[1]
  MIC: > 512 µg/mL
[2]
  MIC: < 0.02 µg/mL

## C[C@@H](O)[C@H]1C(=O)N2C(C(=O)O)=C(S[C@@H]3CN[C@H](C(=O)N(C)C)C3)[C@H](C)[C@H]12 [Meropenem]
[1]
  MIC: 128 µg/mL (≈ 334 µM)
[2]
  MIC: 0.031 µg/mL (≈ 0.0808 µM)
[18]
  Km: > 1000 µM

## IND-2ΔSig (Chryseobacterium indologenes)
[5]
  Km: 728 ± 102 µM
  kcat: 208 s⁻¹
  kcat/Km: 290000 M⁻¹ s⁻¹
[7]
  Km: 1069 ± 105 µM
  kcat: 127 s⁻¹
  kcat/Km: 120000 M⁻¹ s⁻¹
[9]
  Km: 113 ± 6.9 µM
  kcat: 78 s⁻¹
  kcat/Km: 680000 M⁻¹ s⁻¹

## O=C(Cc1cccs1)N[C@@H]1C(=O)N2C(C(=O)O)=C(/C=C/c3ccc([N+](=O)[O-])cc3[N+](=O)[O-])CS[C@H]12 [Nitrocefin]
[19]
  Km: 11 ± 1.8 µM

## Cc1nnc(SCC2=C(C(=O)O)N3C(=O)[C@@H](NC(=O)Cn4cnnn4)[C@H]3SC2)s1 [*Cefazolin (1st)]
[1]
  MIC: 256 µg/mL (≈ 563 µM)
[2]
  MIC: 2 µg/mL (≈ 4.4 µM)

From article PMC10920655, “Identification and characterization of CIM-1, a carbapenemase that adds to the family of resistance factors against last resort antibiotics” (Communications Biology, 2024)
